The values that follow come from the supplement of paper PMC10126150.

± gives the standard deviation of the averaged measurements.

In the data set the test system is ATP. The data set can be described thus: switch fluorescence ratio, 500 uM ATP over buffer (Cy3 cluster intensity, sum of 5 cycles each) (fold (ratio)); higher = stronger signal-on switching upon ATP binding; sequences stand for … in TCGTCGGCAGCGTCAGATGTGTATAAGAGACAGTTTTTTTTTTTTTTTTTTTTTTTTT…TC. Particulars: aptamer strand: ATP DNA aptamer (quencher-CACCTGGGGGAGTATTGCGGAGGAAGG + anchor), 100 nM annealed; ATP concentration: 500 uM. The gist of the method:
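Five buffer/ATP imaging cycles were run on Cy3-labelled switching-strand clusters on a modified Illumina MiSeq flow-cell, with NaOH stripping and re-annealing between cycles. In each cycle, clusters annealed to 100 nM quencher-labelled ATP aptamer were imaged in selection buffer, then after 15 min with 500 uM ATP at 22 °C. Per cluster, the fluorescence ratio is summed target-cycle over summed buffer-cycle Cy3 intensity, averaged per switch-domain sequence. Only clusters within 100-1000 RFU were kept.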
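Further: ATP exposure 15 min at 22 °C before imaging.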

Consider GGAGAAGCGT, for which the switch fluorescence ratio was 1.04 ± 0.031. Next, GGAGACAGTT: 0.971 ± 0.024. On to GGAGACGGGG, for which the switch fluorescence ratio is 0.989 ± 0.011. For the sequence GGAGAGGCAG, the switch fluorescence ratio is 0.975 ± 0.026.

GGAGAGGGCA: the switch fluorescence ratio is 1.016 ± 0.0077. For GGAGATATCT the value was 1.11 ± 0.0069; for GGAGATGTGG, 0.989 ± 0.011; for GGAGCAGTTT, 1.12 ± 0.019.

For the sequence GGAGCATTTT, the switch fluorescence ratio worked out at 1.78 ± 0.88. Turning to GGAGCCGGGG, the switch fluorescence ratio was determined as 1 ± 0.022.

As to GGAGCTTTGT, the switch fluorescence ratio was 0.98 ± 0.015. Consider GGAGGAAGG, for which the switch fluorescence ratio stood at 1.02 ± 0.019. Regarding GGAGGAATTT, the switch fluorescence ratio was found to be 1.01 ± 0.016. On to GGAGGACGGG, for which the switch fluorescence ratio came to 1 ± 0.027.

As to GGAGGATTGG, the switch fluorescence ratio amounted to 0.958 ± 0.017. For the sequence GGAGGCAAGG, the switch fluorescence ratio is 1.1 ± 0.054. Next, GGAGGCAGGG: 0.9965 ± 0.0096. Next, GGAGGCCTCG: 0.982 ± 0.018. Next, GGAGGCGGGA: 1.02 ± 0.045; GGAGGCGGGC: 0.963 ± 0.12; GGAGGGAGGA: 1.25 ± 0.3. Take GGAGGGATAG: the switch fluorescence ratio was determined as 1.26 ± 0.029.

In the case of GGAGGGCATC, the switch fluorescence ratio is 0.972 ± 0.0046. Consider GGAGGGCGGT, for which the switch fluorescence ratio is 0.9948 ± 0.0081. GGAGGGGCGT: the switch fluorescence ratio stood at 0.993 ± 0.023.

As for GGAGGGGTGC, the switch fluorescence ratio came to 1.04 ± 0.032. For GGAGTAAAGG the value was 1.06 ± 0.022; for GGAGTACCTG, 1.06 ± 0.046. For GGAGTACGGG the value was 0.999 ± 0.032. For GGAGTAGGCT the value was 0.938 ± 0.057; for GGAGTATGAG, 0.999 ± 0.021; for GGAGTCGGGG, 1 ± 0.012. For the sequence GGAGTCTGG, the switch fluorescence ratio came to 1.0086 ± 0.0004.

For the sequence GGAGTTAAGC, the switch fluorescence ratio amounted to 1.03 ± 0.061. Next, GGAGTTGCGC: 1.03 ± 0.043; GGAGTTGGGA: 1.021 ± 0.0066. Next, GGAGTTGGGG: 0.99 ± 0.02.

In the case of GGAGTTGGGT, the switch fluorescence ratio stood at 0.984 ± 0.08. For GGAGTTTGAC the value was 1.05 ± 0.068. For GGAGTTTGAG the value was 1 ± 0.0095; for GGATAAAGGT, 0.978 ± 0.018; for GGATAGGAGC, 0.964 ± 0.033. Next, GGATAGTAGG: 0.9956 ± 0.0083. As to GGATAGTGTT, the switch fluorescence ratio worked out at 0.988 ± 0.016. Next, GGATATAGGG: 1 ± 0.034; GGATCAGAAG: 1.004 ± 0.0056; GGATCCTGCA: 1.04 ± 0.052.

For the sequence GGATCGGATT, the switch fluorescence ratio is 0.979 ± 0.023. Next, GGATCGGGGC: 0.994 ± 0.046; GGATGAAAG: 0.99 ± 0.014; GGATGAACGG: 1.01 ± 0.079.

As for GGATGACTTT, the switch fluorescence ratio was determined as 0.9981 ± 0.0071. For GGATGAGGGC the value was 0.993 ± 0.0099. Next, GGATGAGGTT: 0.982 ± 0.044; GGATGATCTT: 0.972 ± 0.022; GGATGCAAAG: 1.01 ± 0.013. As for GGATGCTCGG, the switch fluorescence ratio turned out to be 0.966 ± 0.015. For GGATGCTGGT the value was 1.04 ± 0.053; for GGATGCTGTG, 0.991 ± 0.013; for GGATGCTGTT, 1.02 ± 0.012.

Turning to GGATGCTTGG, the switch fluorescence ratio stood at 1.05 ± 0.021.

On to GGATGGAAAT, for which the switch fluorescence ratio was determined as 1.04 ± 0.012. As for GGATGGAGGG, the switch fluorescence ratio stood at 0.965 ± 0.02.

On to GGATGGAGGT, for which the switch fluorescence ratio was found to be 1 ± 0.023. For GGATGGGTCG, the switch fluorescence ratio was 1.02 ± 0.083.

On to GGATGGTTTT, for which the switch fluorescence ratio was 1.02 ± 0.018. For GGATGTAGAA the value was 1.026 ± 0.0011. Next, GGATGTCACT: 0.974 ± 0.016; GGATGTCGCG: 1.0124 ± 0.001; GGATGTGAGC: 0.983 ± 0.021. Next, GGATGTTGTG: 0.974 ± 0.04; GGATGTTTAG: 1.02 ± 0.021.

Take GGATGTTTTT: the switch fluorescence ratio was determined as 1.03 ± 0.026.

With GGATTAAGTG, the switch fluorescence ratio amounted to 0.9616 ± 0.006. GGATTAGACG: the switch fluorescence ratio was determined as 0.955 ± 0.062.

For the sequence GGATTAGGAG, the switch fluorescence ratio was 0.975 ± 0.011. GGATTAGGTA: the switch fluorescence ratio is 1 ± 0.021. For GGATTATACA the value was 1.02 ± 0.002. Next, GGATTCGTAA: 0.998 ± 0.01; GGATTGAGTT: 0.999 ± 0.035; GGATTGGGAC: 1.024 ± 0.0016. Next, GGATTGTATG: 0.994 ± 0.032; GGATTGTCTT: 1 ± 0.0014. For GGATTTAAAA, the switch fluorescence ratio was 1.05 ± 0.044. Next, GGATTTCATG: 1.07 ± 0.12; GGATTTGGCT: 0.999 ± 0.029. Next, GGATTTGGTG: 1 ± 0.012; GGCAAATGGG: 1.02 ± 0.012. For GGCAATGAAG, the switch fluorescence ratio was found to be 1.03 ± 0.049. Next, GGCACACAGT: 1 ± 0.015. On to GGCACCTGAC, for which the switch fluorescence ratio is 1.95 ± 0.11.

With GGCACGAGGA, the switch fluorescence ratio is 1.04 ± 0.017. For GGCACGCGAG the value was 1.03 ± 0.05. Next, GGCACGGGGG: 1.02 ± 0.008; GGCACTATCC: 1.09 ± 0.07. Next, GGCACTGGTA: 0.981 ± 0.022; GGCACTTCCA: 1.03 ± 0.028; GGCAGATGAA: 1.03 ± 0.011.

With GGCAGATTCC, the switch fluorescence ratio amounted to 1.05 ± 0.019. Consider GGCAGATTTT, for which the switch fluorescence ratio was found to be 0.9986 ± 0.006. For GGCAGCAAGT the value was 1.16 ± 0.013.

Consider GGCAGGTGTT, for which the switch fluorescence ratio is 1.73 ± 0.85. Next, GGCAGTATTT: 1.0371 ± 0.00098; GGCATAATTT: 1.016 ± 0.008; GGCATCAGGC: 1.03 ± 0.042. For GGCATCATGT the value was 1.012 ± 0.0039. For GGCATGGTTT, the switch fluorescence ratio turned out to be 1.01 ± 0.014. Next, GGCATGTTAG: 0.9847 ± 0.009; GGCATTACTG: 1.06 ± 0.025. For GGCATTTTTC, the switch fluorescence ratio stood at 0.999 ± 0.021. For GGCCAACGTA the value was 0.997 ± 0.021; for GGCCAAGGGT, 1.03 ± 0.0039. Turning to GGCCACAGCA, the switch fluorescence ratio stood at 1.07 ± 0.016. Next, GGCCAGGGGA: 1.04 ± 0.049; GGCCCGGAGC: 1.24 ± 0.013.

Regarding GGCCCTTTGG, the switch fluorescence ratio is 0.984 ± 0.0082.

For GGCCGAGGAG, the switch fluorescence ratio stood at 0.998 ± 0.012. Take GGCCGAGTTA: the switch fluorescence ratio was 1.013 ± 0.0036.

On to GGCCGCGGCC, for which the switch fluorescence ratio stood at 1.0014 ± 0.00091. Next, GGCCGGAGGT: 1 ± 0.011.
